The target of this assay is human RXFP1 (human) (UniProt Q9HBX9).
Sequence of UniProt Q9HBX9 (Q9HBX9 whole entry): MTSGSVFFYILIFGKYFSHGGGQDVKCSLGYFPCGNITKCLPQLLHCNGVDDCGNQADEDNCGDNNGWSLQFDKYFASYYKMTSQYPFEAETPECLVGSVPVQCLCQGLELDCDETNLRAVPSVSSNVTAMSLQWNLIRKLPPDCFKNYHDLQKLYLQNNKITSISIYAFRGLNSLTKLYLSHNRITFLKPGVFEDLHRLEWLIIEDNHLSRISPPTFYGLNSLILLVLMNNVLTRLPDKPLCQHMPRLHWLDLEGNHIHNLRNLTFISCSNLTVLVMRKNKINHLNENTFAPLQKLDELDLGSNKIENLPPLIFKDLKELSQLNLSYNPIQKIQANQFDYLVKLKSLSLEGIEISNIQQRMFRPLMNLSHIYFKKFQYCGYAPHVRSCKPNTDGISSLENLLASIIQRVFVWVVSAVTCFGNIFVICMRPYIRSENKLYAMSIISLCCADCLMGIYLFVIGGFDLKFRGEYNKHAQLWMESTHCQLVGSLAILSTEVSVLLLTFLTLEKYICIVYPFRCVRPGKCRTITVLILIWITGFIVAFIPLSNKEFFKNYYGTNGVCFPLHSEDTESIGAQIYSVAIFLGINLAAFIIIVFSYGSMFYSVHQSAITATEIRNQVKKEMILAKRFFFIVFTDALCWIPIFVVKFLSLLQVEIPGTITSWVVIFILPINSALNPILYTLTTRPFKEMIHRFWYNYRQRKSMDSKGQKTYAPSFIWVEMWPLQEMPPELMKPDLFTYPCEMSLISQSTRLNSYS

In turn, native relaxin-2 (ligand) came in with an EC50, Gs signaling (CRE-SEAP, Figure 1c and Table S1) of 0.1 nM.

Values taken from paper PMC11372834.
